The values that follow come from publication PMC10033678, “The RRM-mediated RNA binding activity in T. brucei RAP1 is essential for VSG monoallelic expression”.

The Kd is the constant that tells how readily two partners part at equilibrium.

Data set [1] deals with T1, TbRAP1 639-733 (RRM) (Trypanosoma brucei) (UniProt C1JEX5).
T1 sequence: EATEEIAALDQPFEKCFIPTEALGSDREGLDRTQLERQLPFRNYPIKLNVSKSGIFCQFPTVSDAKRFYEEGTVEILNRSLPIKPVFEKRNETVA
Nature of the data set: fluorescence polarization. The note with it: EMSA: 20 mM HEPES pH 7.9, 235 mM KCl, 1 mM MgCl2, 0.1 mM EDTA, 100 ng/ul BSA, 5% glycerol, 1 mM DTT, room temp 30 min; FP: 20 mM sodium phosphate pH 7.0, 50 mM …. (In general: Fluorescence polarisation rises when a labelled molecule tumbles more slowly, as on binding a larger partner.)

Another data set deals with TbRAP1 639-761 5A (Trypanosoma brucei, UniProt C1JEX5 639-761, R737A;K738A;R739A;R740A;R741A). Nature of the data set: fluorescence polarization; EMSA: 20 mM HEPES pH 7.9, 235 mM KCl, 1 mM MgCl2, 0.1 mM EDTA, 100 ng/ul BSA, 5% glycerol, 1 mM DTT, room temp 30 min; FP: 20 mM sodium phosphate pH 7.0, 50 mM. The note with it: protein: recombinant; label: 5' 6-FAM.
In data set [2] the target is T2, TbRAP1 639-761 (RRM+DB) (Trypanosoma brucei, UniProt C1JEX5 639-761). Described as above. The note with it: protein: recombinant; tags: none (TrxA-His6 removed by 3C for EMSA); label: 5' 6-FAM. For orientation: A gel shift assay detects complexes by their altered migration in electrophoresis.
Data set [3] has as its target T3, TbRAP1 639-733 (RRM) (Trypanosoma brucei, UniProt C1JEX5 639-733). Nature of the data set: NMR titration; EMSA: 20 mM HEPES pH 7.9, 235 mM KCl, 1 mM MgCl2, 0.1 mM EDTA, 100 ng/ul BSA, 5% glycerol, 1 mM DTT, room temp 30 min; FP: 20 mM sodium phosphate pH 7.0, 50 mM. The note with it: protein: recombinant, tags: none (TrxA-His6 removed by 3C for EMSA).
For another data set, the target named is TH6-TbRAP1 639-761 5A (Trypanosoma brucei, UniProt C1JEX5 639-761, R737A;K738A;R739A;R740A;R741A). Nature of the data set: EMSA; EMSA: 20 mM HEPES pH 7.9, 235 mM KCl, 1 mM MgCl2, 0.1 mM EDTA, 100 ng/ul BSA, 5% glycerol, 1 mM DTT, room temp 30 min; FP: 20 mM sodium phosphate pH 7.0, 50 mM. The note with it: protein: recombinant, tags: TrxA-His6.
For another data set, the target named is TbRAP1 639-733 2FA (Trypanosoma brucei, UniProt C1JEX5 639-733, F655A;F694A). Described as above. The note with it: protein: recombinant, tags: none (TrxA-His6 removed by 3C).
The target in data set [4] is T4, TbRAP1 639-733 2FL (Trypanosoma brucei, UniProt C1JEX5 639-733, F655L;F694L). Described as above. The note with it: protein: recombinant, tags: none (TrxA-His6 removed by 3C for EMSA).
Data set [5] has as its target TH6-TbRAP1 639-761 2FA&5A (Trypanosoma brucei, UniProt C1JEX5 639-761, F655A;F694A;R737A;K738A;R739A;R740A;R741A). Described as above. The note with it: protein: recombinant; tags: TrxA-His6.
The target in data set [6] is T2, TbRAP1 639-761 (RRM+DB). The description is as above. The note with it: protein: recombinant, tags: none (TrxA-His6 removed by 3C for EMSA).
In a further data set the target is TbRAP1 639-733 2FQ (Trypanosoma brucei, UniProt C1JEX5 639-733, F655Q;F694Q). The data set is described as above. The note with it: protein: recombinant, tags: none (TrxA-His6 removed by 3C).
In the next data set the target is TH6-TbRAP1 639-761 (Trypanosoma brucei, UniProt C1JEX5 639-761). The description is as above. The note with it: protein: recombinant; tags: TrxA-His6; label: 32P.
In a further data set the target is TH6-TbRAP1 639-733 (Trypanosoma brucei, UniProt C1JEX5 639-733). Described as above. The note with it: protein: recombinant; tags: TrxA-His6; label: 32P.
For data set [7], the target named is T4, TbRAP1 639-733 2FL. Nature of the data set: NMR titration; 3x molar excess RNA; EMSA: 20 mM HEPES pH 7.9, 235 mM KCl, 1 mM MgCl2, 0.1 mM EDTA, 100 ng/ul BSA, 5% glycerol, 1 mM DTT, room temp 30 min; FP: 20 mM sodium phosphate pH 7.0, 50 mM. The note with it: protein: recombinant; tags: none (TrxA-His6 removed by 3C for EMSA).
For data set [8], the target named is T2, TbRAP1 639-761 (RRM+DB). Put plainly: NMR titration; EMSA: 20 mM HEPES pH 7.9, 235 mM KCl, 1 mM MgCl2, 0.1 mM EDTA, 100 ng/ul BSA, 5% glycerol, 1 mM DTT, room temp 30 min; FP: 20 mM sodium phosphate pH 7.0, 50 mM. The note with it: protein: recombinant; tags: none (TrxA-His6 removed by 3C for EMSA).
Data set [9] addresses T3, TbRAP1 639-733 (RRM). Put plainly: EMSA; EMSA: 20 mM HEPES pH 7.9, 235 mM KCl, 1 mM MgCl2, 0.1 mM EDTA, 100 ng/ul BSA, 5% glycerol, 1 mM DTT, room temp 30 min; FP: 20 mM sodium phosphate pH 7.0, 50 mM. The note with it: protein: recombinant; tags: none (TrxA-His6 removed by 3C for EMSA); label: 32P end label.

UGAUAUAUUUUAACAC [6-FAM-16-VSG-UTR] gave a dissociation constant Kd in data set [1] of 929 µM.

B1: 6-FAM-16-VSG-UTR (ssRNA)
RNA: UGAUAUAUUUUAACAC
In the case of B1, the results for the Kd with TbRAP1 639-761 5A and in the data set with TbRAP1 639-761 (RRM+DB) [2] were ~969 µM and ~258 µM, respectively.

B2: (UUAGGG)2 (ssRNA)
RNA: UUAGGGUUAGGG
On to B2, for which the binding result with TbRAP1 639-733 (RRM) [3] is “no binding”.

B3: 170-VSG-UTR (ssRNA)
RNA: GGGCGAAUUGGGUACCGGGCCCCCCCUCGAGGUCGACGGUAUCGAUAAGCUUGAUAUCGAAUUCAAUUCAUUUCCCCCCUCAAAUUUCCCCCCUCCUUUUAAAAUUUUCCUUGCUACUUGAAAACUUUUUGAUAUAUUUUAACACCAAAACCAGCCGAGAUUUGGGAUCC
With B3, the binding result is listed as “binds” with TH6-TbRAP1 639-761 5A; “no binding” with TbRAP1 639-733 2FA; “no binding” with TbRAP1 639-733 2FL [4]; “no binding” in [5]; “no binding” in the data set with TbRAP1 639-733 2FQ. In the data set with TbRAP1 639-761 (RRM+DB) [6], the Kd is ~0.173 µM.

B4: 170-no-VSG (ssRNA)
RNA: GGGCGAAUUGGGUACCGGGCCCCCCCUCGAGGUCGACGGUAUCGAUAAGCUUGAUAUCGAAUUCAAUUCCAAAGAAGCCAUGCGCCGUGCAGAGCAGGAAAAAGCCACACGGGAACUCCUCCUGCAACAAACUUCAGCACCACAUGCAUCAUCAGUUACAUCCGGGAUCC
B4: the binding result is reported as “binds” with TH6-TbRAP1 639-761 5A (label: 32P); “no binding” in the data set with TbRAP1 639-733 2FA (label: 32P); “no binding” in the data set with TbRAP1 639-733 2FL [4] (label: 32P); “binds” with TH6-TbRAP1 639-761; “binds” in the data set with TbRAP1 639-761 (RRM+DB) [6] (label: 32P); “binds” with TH6-TbRAP1 639-733. Moreover, the binding result with TbRAP1 639-733 2FQ (label: 32P) is listed as “no binding”.

B5: 80-dsDNA (dsDNA)
DNA 1: CGTGCAGAGCAGGAAAAAGCCACACGGGAACTCCTCCTGCAACAAACTTCAGCACCACATGCATCATCAGTTACATCCGG
DNA 2: CCGGATGTAACTGATGATGCATGTGGTGCTGAAGTTTGTTGCAGGAGGAGTTCCCGTGTGGCTTTTTCCTGCTCTGCACG
As for B5, the binding result with TbRAP1 639-761 (RRM+DB) [6] (label: 32P Klenow, blunt) is on record as “binds”.

B6: 34-VSG-UTR (ssRNA)
RNA: AAAACUUUUUGAUAUAUUUUAACACCAAAACCAG
In the case of B6, the binding result with TbRAP1 639-733 2FL [7] is reported as “no binding”; in the data set with TbRAP1 639-761 (RRM+DB) [8], “binds”.

B7: 35-random (ssRNA)
RNA: ACAGACCACUACAAGAUACACAGUACAACCAACCA
Regarding B7, in the data set with TbRAP1 639-733 (RRM) [3] (label: 32P end label in EMSA), the binding result is “no binding”.

B8: 35-VSG-UTR (ssRNA)
RNA: UUGCUACUUGAAAACUUUUUGAUAUAUUUUAACAC
As for B8, the binding result in the data set with TbRAP1 639-733 (RRM) [9] and in the data set with TbRAP1 639-761 (RRM+DB) [6] (label: 32P end label) was “binds” each time.
